Data: the supplement of paper PMC9732359
± gives the uncertainty stated by the source.

Test: protein stability index of a GFP-peptide fusion (yeast GPS) (PSI 1-4); higher = more stable; sorted into four equal gates, so the index is relative within each strain
Summary of the method: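 Plasmids in a pooled yeast library fused tiled 17-residue yeast protein peptides downstream of GFP and also expressed Cherry. Mid-log cultures grown without leucine were sorted into four equal gates by GFP/Cherry fluorescence ratio. Each gate's plasmids were PCR-amplified and Illumina-sequenced, and reads were matched to strains by barcodes. The protein stability index is derived by multiplying each gate's read frequency by its gate number and summing the results.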

Sequence | protein stability index (pdr5∆) | protein stability index (san1∆) | protein stability index (ubr1∆) | protein stability index (doa10∆)
HDWLNALDGDLIELLEK [YCG1] | 3.32 ± 0.2 | 2.75 ± 0.24 | 3.55 ± 0.11 | –
SLKGVDPKFRRNHKHAL [RPL29] | 1.77 ± 0.077 | 1.78 ± 0.082 | 1.78 ± 0.12 | 1.45 ± 0.068
AMFAALQQKQQQRFQAL [SWI1] | 1.62 ± 0.053 | 1.3 ± 0.12 | 1.62 ± 0.038 | 1.36 ± 0.051
SSIHWNNWFSLPGDMLA [SIN4] | 1.88 ± 0.055 | 1.71 ± 0.11 | 1.93 ± 0.041 | 2.56 ± 0.061
DNWRREFLKWTPNVNVL [ISW2] | 2.42 ± 0.12 | – | 2.31 ± 0.07 | 1.46 ± 0.098
INKLMEKDFQVNKEIKP [SIR4] | 3.31 ± 0.069 | 3.16 ± 0.069 | 3.31 ± 0.057 | 3.4 ± 0.083
IVVLVPKFGVEGLIRLD [DIS3] | 2.41 ± 0.063 | 2.31 ± 0.085 | 2 ± 0.054 | 2.16 ± 0.07
SNTSTLKNMLYVLSTAV [BRR2] | 1.53 ± 0.09 | 1.17 ± 0.18 | 1.38 ± 0.059 | 1.57 ± 0.066
ELVIRLEKDAADCQAEL [YIL149C/MLP2] | 3.05 ± 0.18 | 3.18 ± 0.22 | 3.07 ± 0.22 | 2.93 ± 0.25
KLYVSHIQVNQAPKQRR [RPL17A] | 1.92 ± 0.068 | 2.02 ± 0.14 | 2.08 ± 0.11 | 1.89 ± 0.079
SASNTAKSTPNTNPSPL [GAL11] | 2.87 ± 0.042 | 2.65 ± 0.038 | 2.9 ± 0.032 | 2.67 ± 0.044
GWKYEDVVAKLEAKRKV [RPL16A] | 1.88 ± 0.063 | 1.93 ± 0.13 | 1.88 ± 0.046 | 2.78 ± 0.082
LKESIKNSTSSMTAVPK [RPN1] | 3.31 ± 0.1 | 3.14 ± 0.1 | 3.2 ± 0.084 | 3.02 ± 0.096
MSPNHGTFGGDGMYSES [FAS2] | 2.34 ± 0.064 | 2.8 ± 0.14 | 2.43 ± 0.064 | 1.87 ± 0.075
EAGVTDVKVSISHDDLQ [FAS2] | 2.72 ± 0.038 | 2.74 ± 0.061 | 2.85 ± 0.047 | 2.77 ± 0.049
IEQGIPKHSYLSGNPLT [SIR4] | 2.88 ± 0.076 | 3.13 ± 0.17 | 2.96 ± 0.061 | 2.86 ± 0.07
ACGAFININEFALPAGS [CDC53] | 2.53 ± 0.091 | 1.99 ± 0.12 | 1.87 ± 0.074 | 2.36 ± 0.096
ALKRSYGIFGEGVEYSF [POP8] | 2.71 ± 0.052 | 2.46 ± 0.097 | 2.86 ± 0.051 | 2.45 ± 0.092
KKASDLVDTPSNNTAAT [NUT1] | 3.17 ± 0.074 | 3.11 ± 0.046 | 3.21 ± 0.06 | 3.28 ± 0.1
DATYDSALELVGQLNKV [RPN6] | 3.1 ± 0.11 | 3.27 ± 0.21 | 2.72 ± 0.28 | 3.11 ± 0.16
SKSAFSFGSKPTGKEEG [YJL041W/NSP1] | 3.34 ± 0.052 | 3.36 ± 0.069 | 3.16 ± 0.067 | 3.26 ± 0.058
HHRDSNFPDEDDDDSRK [SKP1] | 3.55 ± 0.17 | 3.07 ± 0.14 | 3.5 ± 0.18 | 3 ± 0.18
GIRYIRLKQVFNRALDQ [NNF1] | 1.95 ± 0.027 | 2.04 ± 0.036 | 2.12 ± 0.025 | 1.79 ± 0.035
NHFKDTYGFSILDIVIN [FAS1] | 3.28 ± 0.11 | 3.33 ± 0.091 | 3.29 ± 0.088 | 3.41 ± 0.12
YVKSLHKQISAEDLTIA [SIN4] | 3.19 ± 0.11 | 2.8 ± 0.2 | 2.77 ± 0.085 | 2.82 ± 0.14

Sequence | protein stability index (pdr5∆) | protein stability index (san1∆) | protein stability index (ubr1∆) | protein stability index (doa10∆)
LSIPGKSTPEGTLWAHV [SNU114] | 3.09 ± 0.064 | 2.9 ± 0.059 | 3.03 ± 0.04 | 2.91 ± 0.065
QLLKEDSEKRNKYAAML [RRP45] | 2.81 ± 0.089 | 2.75 ± 0.18 | 2.97 ± 0.05 | 3.13 ± 0.11
QRSKKIQPTAKVVYIQR [DIS3] | 2.56 ± 0.22 | 2.92 ± 0.17 | – | 2.23 ± 0.27
RFAPDNQVTDSSQLNKL [SIR3] | 3.1 ± 0.11 | 2.98 ± 0.12 | 3.04 ± 0.14 | 2.9 ± 0.096
QDSNVMPGSQINSPMPQ [SNF2] | 3.12 ± 0.11 | 3.32 ± 0.12 | 3.12 ± 0.17 | 3.26 ± 0.2
IKQTSDESTIKRIKPNT [ECM29] | 3 ± 0.068 | 2.85 ± 0.048 | 2.94 ± 0.059 | 3 ± 0.073
IDDFTTRLWGSVYYHKG [SNU114] | 3.41 ± 0.17 | – | 3.31 ± 0.13 | 3.06 ± 0.24
DSMLFVFGFRANKMRQD [SMC4] | 2.24 ± 0.08 | 2.08 ± 0.12 | 2.7 ± 0.057 | 2.27 ± 0.072
LKHKSICSCVNRGVKLE [RPP1] | 2.75 ± 0.051 | 2.57 ± 0.068 | 2.68 ± 0.034 | 2.31 ± 0.068
GLTQLYKKSTENESTNY [MED7] | 2.84 ± 0.081 | 2.56 ± 0.1 | 2.96 ± 0.05 | 3.08 ± 0.081
SLHTKNVFGTLQRHSGI [YLR018C/POM34] | 2.5 ± 0.071 | 2.31 ± 0.15 | 2.97 ± 0.06 | 2.56 ± 0.066
NVLNQIHQILLPTNPTL [CSE2] | 2.74 ± 0.037 | 2.14 ± 0.05 | 2.42 ± 0.035 | 2.65 ± 0.036
AKRLIHGTSTSAEDEEN [CDC53] | 2.44 ± 0.26 | – | 3.57 ± 0.19 | 2.84 ± 0.14
VFDTAITSWYENHNKGK [QCR9] | 2.96 ± 0.12 | 2.65 ± 0.1 | 2.15 ± 0.073 | 2.49 ± 0.16
PELLDSLAILGMNLLSN [SWI1] | 2.21 ± 0.073 | 2.05 ± 0.079 | 1.92 ± 0.066 | 2.1 ± 0.061
EPKLFRMRIFASNEVIA [RPL20A] | 1.97 ± 0.054 | 1.82 ± 0.06 | 2.28 ± 0.036 | 2.19 ± 0.087
PAWFNNPRKRAIPNSII [YMR153W/NUP53] | 2.94 ± 0.083 | 3.21 ± 0.079 | 3.25 ± 0.084 | 2.62 ± 0.084
TNNTIRYNAKRRNWRRT [RPL39] | 3.02 ± 0.22 | – | 3.58 ± 0.14 | –
SRRFKNGFQTGSAKATS [RPL37B] | 3.12 ± 0.087 | 3.37 ± 0.096 | 3.17 ± 0.059 | 3.13 ± 0.078
VDKSRKVAHTSYKRIYG [PRE8] | 3.13 ± 0.13 | 3.28 ± 0.17 | 3.13 ± 0.093 | 3.31 ± 0.11
AGVPRQAINLGQVVLTP [RPL14A] | 2.64 ± 0.13 | 1.58 ± 0.23 | 2.04 ± 0.21 | 2.09 ± 0.15
PLVQADLYEQIGIDPPR [RPT3] | 2.83 ± 0.1 | 2.63 ± 0.066 | 2.83 ± 0.081 | 2.48 ± 0.074
KTAEQVAAERAARKAAN [RPL7A] | 2.92 ± 0.06 | 2.78 ± 0.062 | 2.56 ± 0.052 | 2.94 ± 0.091
VIEMKRCFENLQNKSFK [UBP6] | 3.28 ± 0.2 | 3.1 ± 0.16 | 3.13 ± 0.1 | 3.33 ± 0.15
ILVGGTLKDYQIKGLQW [SNF2] | 2.83 ± 0.077 | 3.01 ± 0.056 | 3.16 ± 0.047 | 2.99 ± 0.076

Sequence | protein stability index (pdr5∆) | protein stability index (san1∆) | protein stability index (ubr1∆) | protein stability index (doa10∆)
NAEKYFNNGDDDDYGDE [RPC31] | 2.67 ± 0.13 | 3.07 ± 0.066 | 3.16 ± 0.073 | 3.18 ± 0.099
SFFSGLSPPEFLFHAIS [RPO31] | 1.9 ± 0.05 | 1.93 ± 0.11 | 1.91 ± 0.041 | 2.07 ± 0.044
SSKNETSKPVFSFGAAT [YLR335W/NUP2] | 3.08 ± 0.07 | 2.88 ± 0.063 | 3.06 ± 0.038 | 3.12 ± 0.071
PKPLKFLRPTYPDLCSI [RPN1] | 2.69 ± 0.067 | 2.4 ± 0.06 | 2.5 ± 0.042 | 2.61 ± 0.07
SPFRPLEKTSRILNFFD [YMR153W/NUP53] | 3.22 ± 0.093 | 2.72 ± 0.087 | 2.83 ± 0.07 | 2.85 ± 0.13
DVEIGRMPIMLRSNKCI [RET1] | 1.27 ± 0.11 | 1.14 ± 0.27 | 1.07 ± 0.11 | 1.23 ± 0.15
KFQKLLQNSERDVELSS [SMC4] | 3.18 ± 0.048 | 2.94 ± 0.041 | 3.05 ± 0.052 | 2.82 ± 0.065
SKVYYNLGEYESAVKYA [RPN2] | 2.9 ± 0.093 | 2.8 ± 0.084 | 2.84 ± 0.056 | 2.62 ± 0.16
KELQLEKESVEKQHENA [SMC3] | 3.32 ± 0.099 | 2.85 ± 0.071 | 3.15 ± 0.054 | 3.02 ± 0.14
IDTLLYLMTYPQQPMVK [RET1] | 2.09 ± 0.12 | 2.33 ± 0.13 | 1.53 ± 0.056 | 1.52 ± 0.097
AAKKRRPAAKGKNLSFK [RRP6] | 2.77 ± 0.14 | 2.35 ± 0.2 | 2.72 ± 0.1 | 2.35 ± 0.24
EQYTKKINSWDQVLVKG [YJL041W/NSP1] | 2.29 ± 0.1 | – | 1.48 ± 0.087 | 1.72 ± 0.095
ENKVMLPRCSKEEFRLM [RRI2] | 2.1 ± 0.076 | 2.06 ± 0.088 | 1.7 ± 0.048 | 1.8 ± 0.06
LNSMPNNVNEYSYTTIV [YJL039C/NUP192] | 2.95 ± 0.092 | 2.75 ± 0.075 | 2.6 ± 0.058 | 2.69 ± 0.085
QAYFSRLELPVDFQNDL [BRR2] | 2.1 ± 0.064 | 2.54 ± 0.066 | 2.32 ± 0.044 | 2.65 ± 0.15
LARSGLRIGRIEDVTPV [RPS14B] | 1.95 ± 0.052 | 2.25 ± 0.062 | 2.07 ± 0.043 | 1.63 ± 0.046
MLMPKEDRNKIHQYLFQ [RPS10A] | 2.58 ± 0.057 | 2.49 ± 0.079 | 2.71 ± 0.047 | 2.27 ± 0.057
IYRYDEMSNKVLKVDKR [BRR2] | 3.09 ± 0.051 | 2.96 ± 0.038 | 2.84 ± 0.047 | 2.97 ± 0.042
LSLEEVEGHLFEIIDEA [FAS1] | 3.29 ± 0.1 | 3.09 ± 0.063 | 3.07 ± 0.069 | 3.01 ± 0.11
NPRKRKASVLEISPQDS [GAL11] | – | – | 3.1 ± 0.13 | –
FQDVYDLTGSEPIKEII [FAS1] | 3.02 ± 0.081 | – | 3.22 ± 0.1 | 2.78 ± 0.25
RDDLFVRNLQGIQEVVH [NUT1] | 3.2 ± 0.094 | 3.15 ± 0.073 | 3.23 ± 0.068 | 2.9 ± 0.09
YLKNVLFAFNGVARNFH [SIN4] | 2 ± 0.056 | 1.79 ± 0.064 | 2.15 ± 0.063 | 2.55 ± 0.082
SKKRKLNSLTNLLSKRN [SNM1] | 2.99 ± 0.059 | 2.84 ± 0.055 | 2.81 ± 0.057 | 2.87 ± 0.071
